Results reported in US7105641.

Legend:
[1] = target: MCP-1RB (monocyte chemoattractant protein-1 receptor B) (human) (UniProt P41597); assay: cell-based or functional assay
[2] = target: MIP-1α/RANTES receptor (Homo sapiens (Human)) (UniProt P32246); assay: cell-based or functional assay
Sequence of MIP-1α/RANTES receptor (Homo sapiens (Human)) (P32246 whole entry): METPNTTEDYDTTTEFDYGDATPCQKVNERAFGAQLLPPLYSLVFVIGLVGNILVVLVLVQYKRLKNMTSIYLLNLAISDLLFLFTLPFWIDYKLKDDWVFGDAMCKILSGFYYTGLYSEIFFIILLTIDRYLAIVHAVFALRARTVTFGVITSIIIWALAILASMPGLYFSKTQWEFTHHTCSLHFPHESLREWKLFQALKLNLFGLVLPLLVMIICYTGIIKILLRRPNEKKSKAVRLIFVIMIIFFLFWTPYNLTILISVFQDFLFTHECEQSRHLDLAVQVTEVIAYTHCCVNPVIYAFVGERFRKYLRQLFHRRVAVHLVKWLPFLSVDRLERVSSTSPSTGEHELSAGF

Sequence of MCP-1RB (monocyte chemoattractant protein-1 receptor B) (human) (P41597 other isoform, or with tags, fused parts or gaps): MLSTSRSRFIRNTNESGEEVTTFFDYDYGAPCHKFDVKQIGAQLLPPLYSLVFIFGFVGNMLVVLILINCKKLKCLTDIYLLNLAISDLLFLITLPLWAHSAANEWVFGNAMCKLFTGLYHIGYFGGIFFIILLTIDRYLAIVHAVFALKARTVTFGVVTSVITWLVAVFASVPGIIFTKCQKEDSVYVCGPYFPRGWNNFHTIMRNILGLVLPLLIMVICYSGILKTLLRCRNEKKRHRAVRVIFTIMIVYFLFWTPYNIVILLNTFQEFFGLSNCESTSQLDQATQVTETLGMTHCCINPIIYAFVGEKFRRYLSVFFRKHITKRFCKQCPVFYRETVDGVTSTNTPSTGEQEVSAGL

| Substance | IC50(nM), Inhibition of Adenylyl Cyclase [1] [nM] | IC50(nM), Inhibition of Adenylyl Cyclase [2] [nM] |
| --- | --- | --- |
| RANTES (from UniProt P13501 24-91) (ligand) | > 1000 |  |
| IL-8 (interleukin-8) (from UniProt P10145 28-99) (ligand) | > 1000 |  |
| MIP-1α (from UniProt P10147 27-92) (ligand) | > 1000 |  |

Next, values leading:

| IC50(nM), Inhibition of Adenylyl Cyclase [1] [nM] | IC50(nM), Inhibition of Adenylyl Cyclase [2] [nM] | Substance |
| --- | --- | --- |
| > 1000 | > 1000 | Gro-α (from UniProt P09341 35-107) (ligand) |
| > 1000 |  | MIP-1β (from UniProt P13236 24-92) (ligand) |
